The values that follow are results of earlier work, collected in patent publication US10870689B2, “ApoM-Fc fusion proteins, complexes thereof with sphingosine 1-phosphate (S1P), and methods for treating vascular and non-vascular diseases” (Children's Medical Center Corporation, priority 2016, dated 2020).

The conditions of series [1]: Sevvana et al. 2010; read-out: relative affinity for S1P.
For series [2] the following is noted: not associated with HDL; Faber et al. 2006.

B1: recombinant ApoM: Bacterially expressed recombinant human ApoM (protein, UniProt O95445 1-188, looked up)
Apolipoprotein M: MFHQIWAALLYFYGIILNSIYQCPEHSQLTTLGVDGKEFPEVHLGQWYFIAGAAPTKEELATFDPVDNIVFNMAAGSAPMQLHLRATIRMKDGLCVPRKWIYHLTEGSTDLRTEGRPDMKTELFSSSCPGGIMLNETGQGYQRFLLYNRSPHPPEKCVEEFKSLTSCLDSKAFLLTPRNQEACELSNN
For the molecule B1, the Kd in series [1] is ~1000 nM.

B2: Free ApoM: ApoM that is not associated with HDL (protein, UniProt O95445 1-188, looked up)
Apolipoprotein M: B1 Apolipoprotein M
For B2, the in vivo half-life result in series [2] is listed as “less than 15 minutes”.
